This note sets out measurements from publication PMC13127578, “Mavacamten inhibits myosin activity by stabilizing the myosin interacting-heads motif and stalling motor force generation” (Science Advances, 2026).

Data set [1] deals with T1, single-headed human beta-cardiac myosin S1 (cS1), MYH7 residues 1 to 834 fused to GFP and FLAG (human, UniProt P12883 1-834).
T1 construct: beta-cardiac myosin heavy chain (MYH7), human, residues 1 to 834, followed by a short linker, a GFP domain and a FLAG tag; also called cS1gfp
The experiment in a line: cross-linking; quantitative XL-MS with DSBU (600 μM, 20 min, 25°C) on 4 μM purified cS1 with bound light chains, 10 mM Mops pH 7.3, 50 mM KCl, 1 mM ATP, with 50 μM mavacamten or DMSO. The settings on record: both partners purified.

Data set [2] concerns the molecule itself. The data set can be described thus: cryo-EM structure; IHM_(mava): 2 μM cHMM with 1 mM ATP, 50 μM mavacamten (5% DMSO), cross-linked with 1 mM BS3, 50 mM KCl, 10 mM Mops pH 7; Lacey continuous carbon grid; ADP.Pi state; 3.7 Å.

B1: human MYL2 (vLC2), ventricular regulatory light chain (natural protein, UniProt P10916 1-166, looked up)
chain: MAPKKAKKRAGGANSNVFSMFEQTQIQEFKEAFTIMDQNRDGFIDKNDLRDTFAALGRVNVKNEEIDEMIKEAPGPINFTVFLTMFGEKLKGADPEETILNAFKVFDPEGKGVLKADYVREMLTTQAERFSKEEVDQMFAAFPPDVTGNLDYKNLVHIITHGEEKD
notes: myosin regulatory light chain MYL2 (vLC2), human; also called RLC
Take B1: the binding result in data set [1] was “binds”.

B2: human beta-cardiac heavy meromyosin (β-cHMM) heavy chain, MYH7 residues 1 to 1137 (domain or fragment, UniProt P12883 1-1137, looked up)
chain: MGDSEMAVFGAAAPYLRKSEKERLEAQTRPFDLKKDVFVPDDKQEFVKAKIVSREGGKVTAETEYGKTVTVKEDQVMQQNPPKFDKIEDMAMLTFLHEPAVLYNLKDRYGSWMIYTYSGLFCVTVNPYKWLPVYTPEVVAAYRGKKRSEAPPHIFSISDNAYQYMLTDRENQSILITGESGAGKTVNTKRVIQYFAVIAAIGDRSKKDQSPGKGTLEDQIIQANPALEAFGNAKTVRNDNSSRFGKFIRIHFGATGKLASADIETYLLEKSRVIFQLKAERDYHIFYQILSNKKPELLDMLLITNNPYDYAFISQGETTVASIDDAEELMATDNAFDVLGFTSEEKNSMYKLTGAIMHFGNMKFKLKQREEQAEPDGTEEADKSAYLMGLNSADLLKGLCHPRVKVGNEYVTKGQNVQQVIYATGALAKAVYERMFNWMVTRINATLETKQPRQYFIGVLDIAGFEIFDFNSFEQLCINFTNEKLQQFFNHHMFVLEQEEYKKEGIEWTFIDFGMDLQACIDLIEKPMGIMSILEEECMFPKATDMTFKAKLFDNHLGKSANFQKPRNIKGKPEAHFSLIHYAGIVDYNIIGWLQKNKDPLNETVVGLYQKSSLKLLSTLFANYAGADAPIEKGKGKAKKGSSFQTVSALHRENLNKLMTNLRSTHPHFVRCIIPNETKSPGVMDNPLVMHQLRCNGVLEGIRICRKGFPNRILYGDFRQRYRILNPAAIPEGQFIDSRKGAEKLLSSLDIDHNQYKFGHTKVFFKAGLLGLLEEMRDERLSRIITRIQAQSRGVLARMEYKKLLERRDSLLVIQWNIRAFMGVKNWPWMKLYFKIKPLLKSAEREKEMASMKEEFTRLKEALEKSEARRKELEEKMVSLLQEKNDLQLQVQAEQDNLADAEERCDQLIKNKIQLEAKVKEMNERLEDEEEMNAELTAKKRKLEDECSELKRDIDDLELTLAKVEKEKHATENKVKNLTEEMAGLDEIIAKLTKEKKALQEAHQQALDDLQAEEDKVNTLTKAKVKLEQQVDDLEGSLEQEKKVRMDLERAKRKLEGDLKLTQESIMDLENDKQQLDERLKKKDFELNALNARIEDEQALGSQLQKKLKELQARIEELEEELEAERTARAKVEKLRS
notes: FLAG tag at 1138 to 1146; Two heavy chains form the two-headed cHMM; in the sample each carries a mouse ELC and RLC; For cryo-EM and negative stain the sample was cross-linked with BS3 in the presence of ATP; also called βCM; beta-cardiac myosin
For B2, the binding result in data set [2] was “binds”.

B3: human MYL3 (vLC1), ventricular essential light chain (natural protein)
chain: not shown
notes: myosin essential light chain MYL3 (vLC1), human; also called ELC
B3: in data set [1], the binding result is recorded as “binds”.
